# B1: Azoarcus group I ribozyme (parent)
# chain: GUGCCUUGCGCCGGGAAACCACGCAAGGGAUGGUGUCAAAUUCGGCGAAACCUAAGCGCCCGCCCGGGCGUAUGGCAACGCCGAGCCAAGCUUCGGCGCCUGCGCCGAUGAAGGUGUAGAGACUAGACGGCACCCACCUAAGGCAAACGCUAUGGUGAAGGCAUAGUCCAGGGAGUGGCGAAAGUCACACAAACCGG
# Variants of: B1
# Assay: reverse-splicing fitness (ratio to wild type); higher = more active; in vitro selection; Mg2+ level not given
# Method in brief: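 An in vitro group I ribozyme library with randomized positions was T7-transcribed and gel-purified. In triplicate, 10 pmol RNA in EPPS pH 7.5 was reacted with 50 pmoles of a 30-nt RNA substrate for 1 h at 37 °C across several added MgCl2 levels (1–48 mM), then stopped with EDTA. Products were reverse transcribed from a substrate-complementary primer, PCR-amplified and sequenced (HiSeq 4000). Fitness is a variant's read proportion after selection over that before, normalised to wild type.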
row,Variant,reverse-splicing fitness
1,GUGCCUUGCGCCGGGAAACCACGCAAGGGAUGGUGUCAAAUUCGGCGAAACCUAAGCGCCCGCCCGGGCGUAUGGCAACGCGGAGCCAAGCUUCGGCGCCUGCGCCGAUGGAGGUGUAGGGACUAGACGGCACCCACCUAAGGCUAACGAUAUGGUGAAGGCAUAGUCAAGGGAGUGGCGAAAGUCACACAAACCGG,0.0096
2,GUGCCUUGCGCCGGGAAACCACGCAAGGGAUGGUGUCAAAUUCGGCGAAACCUAAGCGCCCGCCCGGGCGUAUGGCAACGCGGAGCCAAGCUUCGGCGCCUGCGCCGAUGGAGGUGUAGGGACUAGACGGCACCCACCUAAGGCUAACGAUAUGGUGAAGGCAUAGUCGAGGGAGUGGCGAAAGUCACACAAACCGG,0.00924
3,GUGCCUUGCGCCGGGAAACCACGCAAGGGAUGGUGUCAAAUUCGGCGAAACCUAAGCGCCCGCCCGGGCGUAUGGCAACGCGGAGCCAAGCUUCGGCGCCUGCGCCGAUGGAGGUGUAGGGACUAGACGGCACCCACCUAAGGCUAACGAUAUGGUGAAGGCAUAGUCUAGGGAGUGGCGAAAGUCACACAAACCGG,0.00794
4,GUGCCUUGCGCCGGGAAACCACGCAAGGGAUGGUGUCAAAUUCGGCGAAACCUAAGCGCCCGCCCGGGCGUAUGGCAACGCGGAGCCAAGCUUCGGCGCCUGCGCCGAUGGAGGUGUAGGGACUAGACGGCACCCACCUAAGGCGAACGCUAUGGUGAAGGCAUAGUCUAGGGAGUGGCGAAAGUCACACAAACCGG,0.0134
5,GUGCCUUGCGCCGGGAAACCACGCAAGGGAUGGUGUCAAAUUCGGCGAAACCUAAGCGCCCGCCCGGGCGUAUGGCAACGCGGAGCCAAGCUUCGGCGCCUGCGCCGAUGGAGGUGUAGGGACUAGACGGCACCCACCUAAGGCGAACGCUAUGGUGAAGGCAUAGUCGAGGGAGUGGCGAAAGUCACACAAACCGG,0.0197
6,GUGCCUUGCGCCGGGAAACCACGCAAGGGAUGGUGUCAAAUUCGGCGAAACCUAAGCGCCCGCCCGGGCGUAUGGCAACGCGGAGCCAAGCUUCGGCGCCUGCGCCGAUGGAGGUGUAGGGACUAGACGGCACCCACCUAAGGCGAACGCUAUGGUGAAGGCAUAGUCAAGGGAGUGGCGAAAGUCACACAAACCGG,0.0141
7,GUGCCUUGCGCCGGGAAACCACGCAAGGGAUGGUGUCAAAUUCGGCGAAACCUAAGCGCCCGCCCGGGCGUAUGGCAACGCGGAGCCAAGCUUCGGCGCCUGCGCCGAUGGAGGUGUAGGGACUAGACGGCACCCACCUAAGGCUAACGAUAUGGUGAAGGCAUAGUCAAGGGAGCGGCGAAAGUCACACAAACCGG,0.0159
8,GUGCCUUGCGCCGGGAAACCACGCAAGGGAUGGUGUCAAAUUCGGCGAAACCUAAGCGCCCGCCCGGGCGUAUGGCAACGCGGAGCCAAGCUUCGGCGCCUGCGCCGAUGGAGGUGUAGGGACUAGACGGCACCCACCUAAGGCUAACGAUAUGGUGAAGGCAUAGUCAAGGGAGGGGCGAAAGUCACACAAACCGG,0.00495
9,GUGCCUUGCGCCGGGAAACCACGCAAGGGAUGGUGUCAAAUUCGGCGAAACCUAAGCGCCCGCCCGGGCGUAUGGCAACGCGGAGCCAAGCUUCGGCGCCUGCGCCGAUGGAGGUGUAGGGACUAGACGGCACCCACCUAAGGCUAACGAUAUGGUGAAGGCAUAGUCAAGGGAGAGGCGAAAGUCACACAAACCGG,0.0175
10,GUGCCUUGCGCCGGGAAACCACGCAAGGGAUGGUGUCAAAUUCGGCGAAACCUAAGCGCCCGCCCGGGCGUAUGGCAACGCGGAGCCAAGCUUCGGCGCCUGCGCCGAUGGAGGUGUAGGGACUAGACGGCACCCACCUAAGGCGAACGCUAUGGUGAAGGCAUAGUCCAGGGAGAGGCGAAAGUCACACAAACCGG,0.0129
11,GUGCCUUGCGCCGGGAAACCACGCAAGGGAUGGUGUCAAAUUCGGCGAAACCUAAGCGCCCGCCCGGGCGUAUGGCAACGCGGAGCCAAGCUUCGGCGCCUGCGCCGAUGGAGGUGUAGGGACUAGACGGCACCCACCUAAGGCGAACGCUAUGGUGAAGGCAUAGUCCAGGGAGCGGCGAAAGUCACACAAACCGG,0.0204
12,GUGCCUUGCGCCGGGAAACCACGCAAGGGAUGGUGUCAAAUUCGGCGAAACCUAAGCGCCCGCCCGGGCGUAUGGCAACGCGGAGCCAAGCUUCGGCGCCUGCGCCGAUGGAGGUGUAGGGACUAGACGGCACCCACCUAAGGCGAACGCUAUGGUGAAGGCAUAGUCCAGGGAGGGGCGAAAGUCACACAAACCGG,0.00696
13,GUGCCUUGCGCCGGGAAACCACGCAAGGGAUGGUGUCAAAUUCGGCGAAACCUAAGCGCCCGCCCGGGCGUAUGGCAACGCGGAGCCAAGCUUCGGCGCCUGCGCCGAUGGAGGUGUAGGGACUAGACGGCACCCACCUAAGGCGAACGCUAUGGUGAAGGCAUAGUCGAGGGAGGGGCGAAAGUCACACAAACCGG,0.0045
14,GUGCCUUGCGCCGGGAAACCACGCAAGGGAUGGUGUCAAAUUCGGCGAAACCUAAGCGCCCGCCCGGGCGUAUGGCAACGCGGAGCCAAGCUUCGGCGCCUGCGCCGAUGGAGGUGUAGGGACUAGACGGCACCCACCUAAGGCGAACGCUAUGGUGAAGGCAUAGUCGAGGGAGCGGCGAAAGUCACACAAACCGG,0.0248
15,GUGCCUUGCGCCGGGAAACCACGCAAGGGAUGGUGUCAAAUUCGGCGAAACCUAAGCGCCCGCCCGGGCGUAUGGCAACGCGGAGCCAAGCUUCGGCGCCUGCGCCGAUGGAGGUGUAGGGACUAGACGGCACCCACCUAAGGCGAACGCUAUGGUGAAGGCAUAGUCGAGGGAGAGGCGAAAGUCACACAAACCGG,0.0184
16,GUGCCUUGCGCCGGGAAACCACGCAAGGGAUGGUGUCAAAUUCGGCGAAACCUAAGCGCCCGCCCGGGCGUAUGGCAACGCGGAGCCAAGCUUCGGCGCCUGCGCCGAUGGAGGUGUAGGGACUAGACGGCACCCACCUAAGGCGAACGUUAUGGUGAAGGCAUAGUCUAGGGAGGGGCGAAAGUCACACAAACCGG,0.00668
17,GUGCCUUGCGCCGGGAAACCACGCAAGGGAUGGUGUCAAAUUCGGCGAAACCUAAGCGCCCGCCCGGGCGUAUGGCAACGCGGAGCCAAGCUUCGGCGCCUGCGCCGAUGGAGGUGUAGGGACUAGACGGCACCCACCUAAGGCGAACGCUAUGGUGAAGGCAUAGUCUAGGGAGCGGCGAAAGUCACACAAACCGG,0.019
18,GUGCCUUGCGCCGGGAAACCACGCAAGGGAUGGUGUCAAAUUCGGCGAAACCUAAGCGCCCGCCCGGGCGUAUGGCAACGCGGAGCCAAGCUUCGGCGCCUGCGCCGAUGGAGGUGUAGGGACUAGACGGCACCCACCUAAGGCGAACGCUAUGGUGAAGGCAUAGUCUAGGGAGGGGCGAAAGUCACACAAACCGG,0.00529
19,GUGCCUUGCGCCGGGAAACCACGCAAGGGAUGGUGUCAAAUUCGGCGAAACCUAAGCGCCCGCCCGGGCGUAUGGCAACGCGGAGCCAAGCUUCGGCGCCUGCGCCGAUGGAGGUGUAGGGACUAGACGGCACCCACCUAAGGCGAACGCUAUGGUGAAGGCAUAGUCUAGGGAGAGGCGAAAGUCACACAAACCGG,0.0188
20,GUGCCUUGCGCCGGGAAACCACGCAAGGGAUGGUGUCAAAUUCGGCGAAACCUAAGCGCCCGCCCGGGCGUAUGGCAACGCGGAGCCAAGCUUCGGCGCCUGCGCCGAUGGAGGUGUAGGGACUAGACGGCACCCACCUAAGGCUAACGAUAUGGUGAAGGCAUAGUCCAGGGAGUGGCGAAAGUCACACAAACCGG,0.00906
21,GUGCCUUGCGCCGGGAAACCACGCAAGGGAUGGUGUCAAAUUCGGCGAAACCUAAGCGCCCGCCCGGGCGUAUGGCAACGCGGAGCCAAGCUUCGGCGCCUGCGCCGAUGGAGGUGUAGGGACUAGACGGCACCCACCUAAGGCGAACGUUAUGGUGAAGGCAUAGUCCAGGGAGGGGCGAAAGUCACACAAACCGG,0.00823
22,GUGCCUUGCGCCGGGAAACCACGCAAGGGAUGGUGUCAAAUUCGGCGAAACCUAAGCGCCCGCCCGGGCGUAUGGCAACGCGGAGCCAAGCUUCGGCGCCUGCGCCGAUGGAGGUGUAGGGACUAGACGGCACCCACCUAAGGCGAACGUUAUGGUGAAGGCAUAGUCCAGGGAGAGGCGAAAGUCACACAAACCGG,0.0115
23,GUGCCUUGCGCCGGGAAACCACGCAAGGGAUGGUGUCAAAUUCGGCGAAACCUAAGCGCCCGCCCGGGCGUAUGGCAACGCGGAGCCAAGCUUCGGCGCCUGCGCCGAUGGAGGUGUAGGGACUAGACGGCACCCACCUAAGGCGAACGUUAUGGUGAAGGCAUAGUCCAGGGAGCGGCGAAAGUCACACAAACCGG,0.0189
24,GUGCCUUGCGCCGGGAAACCACGCAAGGGAUGGUGUCAAAUUCGGCGAAACCUAAGCGCCCGCCCGGGCGUAUGGCAACGCGGAGCCAAGCUUCGGCGCCUGCGCCGAUGGAGGUGUAGGGACUAGACGGCACCCACCUAAGGCGAACGCUAUGGUGAAGGCAUAGUCAAGGGAGGGGCGAAAGUCACACAAACCGG,0.00443
25,GUGCCUUGCGCCGGGAAACCACGCAAGGGAUGGUGUCAAAUUCGGCGAAACCUAAGCGCCCGCCCGGGCGUAUGGCAACGCGGAGCCAAGCUUCGGCGCCUGCGCCGAUGGAGGUGUAGGGACUAGACGGCACCCACCUAAGGCGAACGCUAUGGUGAAGGCAUAGUCAAGGGAGAGGCGAAAGUCACACAAACCGG,0.0166
26,GUGCCUUGCGCCGGGAAACCACGCAAGGGAUGGUGUCAAAUUCGGCGAAACCUAAGCGCCCGCCCGGGCGUAUGGCAACGCGGAGCCAAGCUUCGGCGCCUGCGCCGAUGGAGGUGUAGGGACUAGACGGCACCCACCUAAGGCGAACGCUAUGGUGAAGGCAUAGUCAAGGGAGCGGCGAAAGUCACACAAACCGG,0.0235
27,GUGCCUUGCGCCGGGAAACCACGCAAGGGAUGGUGUCAAAUUCGGCGAAACCUAAGCGCCCGCCCGGGCGUAUGGCAACGCGGAGCCAAGCUUCGGCGCCUGCGCCGAUGGAGGUGUAGGGACUAGACGGCACCCACCUAAGGCUAACGAUAUGGUGAAGGCAUAGUCGAGGGAGGGGCGAAAGUCACACAAACCGG,0.00454
28,GUGCCUUGCGCCGGGAAACCACGCAAGGGAUGGUGUCAAAUUCGGCGAAACCUAAGCGCCCGCCCGGGCGUAUGGCAACGCGGAGCCAAGCUUCGGCGCCUGCGCCGAUGGAGGUGUAGGGACUAGACGGCACCCACCUAAGGCUAACGAUAUGGUGAAGGCAUAGUCGAGGGAGAGGCGAAAGUCACACAAACCGG,0.017
29,GUGCCUUGCGCCGGGAAACCACGCAAGGGAUGGUGUCAAAUUCGGCGAAACCUAAGCGCCCGCCCGGGCGUAUGGCAACGCGGAGCCAAGCUUCGGCGCCUGCGCCGAUGGAGGUGUAGGGACUAGACGGCACCCACCUAAGGCUAACGAUAUGGUGAAGGCAUAGUCGAGGGAGCGGCGAAAGUCACACAAACCGG,0.0174
30,GUGCCUUGCGCCGGGAAACCACGCAAGGGAUGGUGUCAAAUUCGGCGAAACCUAAGCGCCCGCCCGGGCGUAUGGCAACGCGGAGCCAAGCUUCGGCGCCUGCGCCGAUGGAGGUGUAGGGACUAGACGGCACCCACCUAAGGCUAACGCUAUGGUGAAGGCAUAGUCCAGGGAGUGGCGAAAGUCACACAAACCGG,0.0198

# Reference: the RNAGym collection of RNA variant scans (doi:10.1093/molbev/msab373)
